The target in the first experiment is clathrin purified from bovine brain, P49951. Briefly: peptide array overlay assay. The following applies: chain shown with the change, n = 1, parent: est. 0.15, read off a plot.
Sequence of clathrin purified from bovine brain, P49951 (P49951 2-1675, chain 1 of 3): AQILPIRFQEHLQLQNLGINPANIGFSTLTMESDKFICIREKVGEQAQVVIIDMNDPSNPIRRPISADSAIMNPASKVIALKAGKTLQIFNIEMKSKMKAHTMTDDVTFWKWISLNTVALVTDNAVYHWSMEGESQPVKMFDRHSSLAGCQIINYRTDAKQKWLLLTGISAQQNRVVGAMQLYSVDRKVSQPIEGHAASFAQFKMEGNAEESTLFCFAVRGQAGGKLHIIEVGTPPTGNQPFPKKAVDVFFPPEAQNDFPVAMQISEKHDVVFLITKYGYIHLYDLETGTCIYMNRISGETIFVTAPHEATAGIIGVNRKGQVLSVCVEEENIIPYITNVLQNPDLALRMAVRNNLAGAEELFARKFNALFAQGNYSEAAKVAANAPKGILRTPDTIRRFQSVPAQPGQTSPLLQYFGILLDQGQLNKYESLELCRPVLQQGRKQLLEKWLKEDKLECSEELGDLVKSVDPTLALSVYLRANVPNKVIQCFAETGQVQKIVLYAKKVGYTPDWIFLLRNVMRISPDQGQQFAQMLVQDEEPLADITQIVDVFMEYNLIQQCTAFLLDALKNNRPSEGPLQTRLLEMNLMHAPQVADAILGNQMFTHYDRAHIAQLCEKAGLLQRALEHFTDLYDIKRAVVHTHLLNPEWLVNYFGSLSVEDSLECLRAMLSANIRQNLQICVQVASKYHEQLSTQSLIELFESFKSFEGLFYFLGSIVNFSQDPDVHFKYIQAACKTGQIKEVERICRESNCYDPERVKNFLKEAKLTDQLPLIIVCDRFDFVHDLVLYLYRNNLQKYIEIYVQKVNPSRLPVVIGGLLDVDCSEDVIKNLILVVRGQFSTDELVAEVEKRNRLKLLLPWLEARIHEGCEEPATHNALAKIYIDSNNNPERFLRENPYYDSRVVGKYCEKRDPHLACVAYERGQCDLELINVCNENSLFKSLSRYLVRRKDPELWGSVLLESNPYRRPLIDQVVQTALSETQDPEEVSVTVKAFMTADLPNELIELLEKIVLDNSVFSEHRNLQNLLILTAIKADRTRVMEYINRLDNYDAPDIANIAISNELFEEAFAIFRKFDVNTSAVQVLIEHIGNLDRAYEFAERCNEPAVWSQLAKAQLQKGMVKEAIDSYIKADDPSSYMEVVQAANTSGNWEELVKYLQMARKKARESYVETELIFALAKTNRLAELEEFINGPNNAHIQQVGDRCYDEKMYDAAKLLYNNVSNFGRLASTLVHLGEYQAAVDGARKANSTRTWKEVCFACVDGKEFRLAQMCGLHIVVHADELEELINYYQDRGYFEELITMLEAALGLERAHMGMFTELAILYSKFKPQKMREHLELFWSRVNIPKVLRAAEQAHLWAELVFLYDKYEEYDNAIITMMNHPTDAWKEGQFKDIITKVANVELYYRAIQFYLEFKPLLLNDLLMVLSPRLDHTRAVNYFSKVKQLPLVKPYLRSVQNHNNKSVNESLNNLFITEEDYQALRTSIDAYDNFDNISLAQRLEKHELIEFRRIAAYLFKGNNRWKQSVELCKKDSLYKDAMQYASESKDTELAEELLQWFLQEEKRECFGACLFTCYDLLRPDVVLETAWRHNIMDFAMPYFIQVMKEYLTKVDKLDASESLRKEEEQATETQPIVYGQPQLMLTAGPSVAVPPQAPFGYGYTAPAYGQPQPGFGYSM
Sequence of clathrin purified from bovine brain, P49951 (chain, as listed by the source, chain 2 of 3): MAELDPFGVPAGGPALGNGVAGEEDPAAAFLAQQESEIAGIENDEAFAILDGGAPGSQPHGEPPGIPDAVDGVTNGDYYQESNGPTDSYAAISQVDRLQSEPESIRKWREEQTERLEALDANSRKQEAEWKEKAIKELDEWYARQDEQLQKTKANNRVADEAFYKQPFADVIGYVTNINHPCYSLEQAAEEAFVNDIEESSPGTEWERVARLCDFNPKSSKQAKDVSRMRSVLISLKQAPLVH
Sequence of clathrin purified from bovine brain, P49951 (chain, as listed by the source, chain 3 of 3): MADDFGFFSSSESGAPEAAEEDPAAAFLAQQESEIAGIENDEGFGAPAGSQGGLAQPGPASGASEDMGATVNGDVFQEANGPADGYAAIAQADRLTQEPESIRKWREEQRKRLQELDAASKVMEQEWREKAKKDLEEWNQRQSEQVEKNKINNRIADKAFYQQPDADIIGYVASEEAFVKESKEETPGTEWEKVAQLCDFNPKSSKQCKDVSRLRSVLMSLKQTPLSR
Take SAAAASSAANAVGNA [CALM iso3 487-…-501 D488A; D489A; L490A; D491A; L494A; L497A; L501A]: the other: relative clathrin binding (intensity divided by that of 15mer E) was 0. With SDDADSSAANAVGNA [CALM iso3 487-…-501 L490A; L494A; L497A; L501A], the other: relative clathrin binding (intensity divided by that of 15mer E) worked out at 0. For the molecule SAALASSLANLVGNL [CALM iso3 487-…-501 D488A; D489A; D491A], the other: relative clathrin binding (intensity divided by that of 15mer E) was 0.35.

The same experiment, now with this note: chain shown with the change, n = 1, parent: est. 1.0, read off a plot.
In the case of PAKAPLAALNIKAFL [AP180 Site 2 peptide 882-…-896 D885A; D889A; D894A], the ratio to parent was 0.12. Still for that read-out and setting: the result for AASSAANAVGNAGAG [CALM iso3 490-…-504 L490A; D491A; L494A; L497A; L501A; I503A] reads 0; that for LASSLANLVGNLGIG [CALM iso3 490-…-504 D491A], 1. As to PAKAPAAAANAKAAA [AP180 Site 2 peptide 882-…-896 D885A; L887A; D889A; L890A; I892A; D894A; F895A; L896A], the ratio to parent is 0.

Take PAKDPAADANAKDAA [AP180 Site 2 peptide 882-…-896 L887A; L890A; I892A; F895A; L896A]: the ratio to parent is 0. Same read-out and setting: the result for PNPFGPVSGAQAQAA [CALM iso3 C-terminus peptide 596-…-610 I607A; F609A; M610A] reads 0. For the molecule ADSSAANAVGNAGAG [CALM iso3 490-…-504 L490A; L494A; L497A; L501A; I503A], the ratio to parent is 0.

The record behind these values is PMC5004861.
